The source of these data is the supplement of paper PMC5998384.

Data set [1] has as its system HeLa Kyoto. As to the kind of experiment: thermal stability score vs G1/S (z-score of summed log2 fold changes over temperatures); higher = more thermally stable than in G1/S.
Data set [2] relates to HeLa Kyoto. As to the kind of experiment: solubility in G1/S (NP-40 vs SDS abundance) (log2 ratio); higher = more soluble. As to conditions: cell cycle stage: G1/S.
The subject of data set [3] is HeLa Kyoto. As to the kind of experiment: solubility change mitosis vs G1/S (difference of NP-40 vs SDS log2 ratios) (log2 ratio difference); higher = more soluble in mitosis.
Data set [4] has as its system HeLa Kyoto. As to the kind of experiment: melting temperature (median over replicates), in situ; higher = more thermally stable.
Setting [5] is: cell cycle stage: early G1 (4.5 h after nocodazole release).
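Wherever melting temperature (median over replicates), in situ is given: HeLa Kyoto cells synchronized by double thymidine or nocodazole block, proteins quantified by TMT10plex mass spectrometry, three independent biological replicates.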
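Wherever solubility change mitosis vs G1/S (difference of NP-40 vs SDS log2 ratios) is given: synchronized HeLa Kyoto cells (double thymidine block for G1/S, nocodazole release for mitosis), protein amounts in NP-40 versus SDS lysates quantified by mass spectrometry, three biological replicates.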
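Wherever solubility in G1/S (NP-40 vs SDS abundance) is given: HeLa Kyoto cells arrested at G1/S by double thymidine block, proteins quantified by TMT10plex mass spectrometry in mild NP-40 versus SDS extracts, three biological replicates.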
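Wherever thermal stability score vs G1/S (z-score of summed log2 fold changes over temperatures) is given: synchronized HeLa Kyoto cells, proteins quantified by TMT10plex mass spectrometry, three biological replicates, mitosis taken 0.5 h after nocodazole release, G1/S directly after double thymidine block.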

Regarding “MASATAAAARRGLGRALPLFWRGYQTERGVYGYRPRKPESREPQGALERPPVDHGLARLVTVYCEHGHKAAKINPLFTGQALLENVPEIQALVQTLQGPFHTAGLLNMGKEEASLEEVLVYLNQIYCGQISIETSQLQSQDEKDWFAKRFEELQKETFTTEERKHLSKLMLESQEFDHFLATKFSTVKRYGGEGAESMMGFFHELLKMSAYSGITDVIIGMPHRGRLNLLTGLLQFPPELMFRKMRGLSEFPENFSATGDVLSHLTSSVDLYFGAHHPLHVTMLPNPSHLEAVNPVAVGKTRGRQQSRQDGDYSPDNSAQPGDRVICLQVHGDASFCGQGIVPETFTLSNLPHFRIGGSVHLIVNNQLGYTTPAERGRSSLYCSDIGKLVGCAIIHVNGDSPEEVVRATRLAFEYQRQFRKDVIIDLLCYRQWGHNELDEPFYTNPIMYKIIRARKSIPDTYAEHLIAGGLMTQEEVSEIKSSYYAKLNDHLNNMAHYRPPALNLQAHWQGLAQPEAQITTWSTGVPLDLLRFVGMKSVEVPRELQMHSHLLKTHVQSRMEKMMDGIKLDWATAEALALGSLLAQGFNVRLSGQDVGRGTFSQRHAIVVCQETDDTYIPLNHMDPNQKGFLEVSNSPLSEEAVLGFEYGMSIESPKLLPLWEAQFGDFFNGAQIIFDTFISGGEAKWLLQSGIVILLPHGYDGAGPDHSSCRIERFLQMCDSAEEGVDGDTVNMFVVHPTTPAQYFHLLRRQMVRNFRKPLIVASPKMLLRLPAAVSTLQEMAPGTTFNPVIGDSSVDPKKVKTLVFCSGKHFYSLVKQRESLGAKKHDFAIIRVEELCPFPLDSLQQEMSKYKHVKDHIWSQEEPQNMGPWSFVSPRFEKQLACKLRLVGRPPLPVPAVGIGTVHLHQHEDILAKTFA [DHTKD1]”, the thermal stability score was -0.797 in the data set with HeLa Kyoto [1] (setting [5]) and -0.271 in the data set on HeLa Kyoto [1] (cell cycle stage: mitosis). The “solubility in G1/S (log2)” value in the data set with HeLa Kyoto [2] was -0.0401. In addition, the “solubility change mitosis (log2)” value in the data set with HeLa Kyoto [3] was -0.0218. The values for the melting temperature with HeLa Kyoto [4] (cell cycle stage: G1/S) and in the data set with HeLa Kyoto [4] (cell cycle stage: mitosis) were 51.2 °C and 51.4 °C, respectively.

For “MLPHVVLTFRRLGCALASCRLAPARHRGSGLLHTAPVARSDRSAPVFTRALAFGDRIALVDQHGRHTYRELYSRSLRLSQEICRLCGCVGGDLREERVSFLCANDASYVVAQWASWMSGGVAVPLYRKHPAAQLEYVICDSQSSVVLASQEYLELLSPVVRKLGVPLLPLTPAIYTGAVEEPAEVPVPEQGWRNKGAMIIYTSGTTGRPKGVLSTHQNIRAVVTGLVHKWAWTKDDVILHVLPLHHVHGVVNALLCPLWVGATCVMMPEFSPQQVWEKFLSSETPRINVFMAVPTIYTKLMEYYDRHFTQPHAQDFLRAVCEEKIRLMVSGSAALPLPVLEKWKNITGHTLLERYGMTEIGMALSGPLTTAVRLPGSVGTPLPGVQVRIVSENPQREACSYTIHAEGDERGTKVTPGFEEKEGELLVRGPSVFREYWNKPEETKSAFTLDGWFKTGDTVVFKDGQYWIRGRTSVDIIKTGGYKVSALEVEWHLLAHPSITDVAVIGVPDMTWGQRVTAVVTLREGHSLSHRELKEWARNVLAPYAVPSELVLVEEIPRNQMGKIDKKALIRHFHPS [ACSF3]”, the thermal stability score with HeLa Kyoto [1] (setting [5]) is -0.21; in the data set with HeLa Kyoto [1] (cell cycle stage: mitosis), 1.59. Moreover, the “solubility in G1/S (log2)” value with HeLa Kyoto [2] was -0.107. Moreover, in the data set on HeLa Kyoto [3], the “solubility change mitosis (log2)” value was -0.0957. Moreover, the melting temperature is 49.3 °C in the data set with HeLa Kyoto [4] (cell cycle stage: G1/S) and 49.7 °C in the data set on HeLa Kyoto [4] (cell cycle stage: mitosis).

Take “MAAAGPSTRASSAAAAAALSRRGRRGRCDETAAAKTGAPGPASGPSLLVLSPPLLQPPLPPRPEESGCAGCLEPPGEAAALPCGHSLCRGCAQRAADAAGPGCPRCRARGPGWARRRARDDGQADSEVLGECARRSQPERCRPRRDGGAAAAGPRPEQEPRAAPAEPDFIFRAPIKLSKPGELREEYESLRKLREEKLQEEKPSEDQIHKLLPEDTETGKRKMDEQKKRDEPLVLKTNLERCPARLSDSENEEPSRGQMTQTHRSAFVSKNNSYSLAFLAGKLNSKVERSQSCSDTAQERAKSRVRAVPGNKAKVTTMTPASNPIIGVLLSTQNNRCVSAPDLTIEKRLPFSSLSSLASLHKPERSVSPESNDSISEELNHFKPIVCSPCTPPKRLPDGRVLSPLIIKSTPRNLNRSLQKQTSYEASPRILKKWEQIFQERQIKKTLSKATLTSLAPEMGEELLGSEGIHSSKEKPLVAVNTRLSGGQVLSEYTGPTSADLDHFPSVSQTKAEQDSDNKSSTEIPLETCCSSELKGGGSGTSLEREQFEGLGSTPDAKLDKTCISRAMKITTVNSVLPQNSVLGGVLKTKQQLKTLNHFDLTNGVLVESLSEEPLPSLRRGRKRHCKTKHLEQNGSLKKLRQTSGEVGLAPTDPVLREMEQKLQQEEEDRQLALQLQRMFDNERRTVSRRKGSVDQYLLRSSNMAGAK [RNF169]”: the thermal stability score amounted to 0.359 in the data set with HeLa Kyoto [1] (setting [5]) and 0.101 in the data set with HeLa Kyoto [1] (cell cycle stage: mitosis). The “solubility in G1/S (log2)” value in the data set with HeLa Kyoto [2] is -0.158. In the data set on HeLa Kyoto [3], the “solubility change mitosis (log2)” value was 0.36. In addition, in the data set on HeLa Kyoto [4] (cell cycle stage: mitosis), the melting temperature was found to be 51.8 °C.

Regarding “MWLDRRGWLRVLGHWRYDLRRPSFTRTWSGDKGPMAETVSTQVGTEGGLRASHQQNGDAGGDAKVELSPGPPKPAGREVEPAPVGGEHPSAAAPGPGKHKKRRGATRERVVPPPKKRRTGVSFGDEHFAETSYYFEGGLRKVRPYYFDFRTYCKGRWVGHSLLHVFSTEFRAQPLAYYEAAVRAGRLQLNEKPVQDLNIVLKDNDFLRNTVHRHEPPVTAEPIRLLAENEDVVVVDKPSSIPVHPCGRFRHNTVIFILGKEHQLKELHPLHRLDRLTSGVLMFAKTAAVSERIHEQVRDRQLEKEYVCRVEGEFPTEEVTCKEPILVVSYKVGVCRVDPRGKPCETVFQRLSYNGQSSVVRCRPLTGRTHQIRVHLQFLGHPILNDPIYNSVAWGPSRGRGGYIPKTNEELLRDLVAEHQAKQSLDVLDLCEGDLSPGLTDSTAPSSELGKDDLEELAAAAQKMEEVAEAAPQELDTIALASEKAVETDVMNQETDPLCAECRLVRQDPLPQDLVMFLHALRYKGPGFEYFSPMPAWAQDDWQKD [RPUSD2]”, the thermal stability score with HeLa Kyoto [1] (setting [5]) was -1.46; in the data set on HeLa Kyoto [1] (cell cycle stage: mitosis), -2.6. The “solubility in G1/S (log2)” value with HeLa Kyoto [2] was -0.0296. In addition, the “solubility change mitosis (log2)” value with HeLa Kyoto [3] was 0.0172. Also, the melting temperature with HeLa Kyoto [4] (cell cycle stage: G1/S) and in the data set with HeLa Kyoto [4] (cell cycle stage: mitosis) was 54.1 °C in each case.

Take “MALAARLWRLLPFRRGAAPGSRLPAGTSGSRGHCGPCRFRGFEVMGNPGTFKRGLLLSALSYLGFETYQVISQAAVVHATAKVEEILEQADYLYESGETEKLYQLLTQYKESEDAELLWRLARASRDVAQLSRTSEEEKKLLVYEALEYAKRALEKNESSFASHKWYAICLSDVGDYEGIKAKIANAYIIKEHFEKAIELNPKDATSIHLMGIWCYTFAEMPWYQRRIAKMLFATPPSSTYEKALGYFHRAEQVDPNFYSKNLLLLGKTYLKLHNKKLAAFWLMKAKDYPAHTEEDKQIQTEAAQLLTSFSEKN [RMDN1]”: the values for the thermal stability score in the data set with HeLa Kyoto [1] (setting [5]) and in the data set with HeLa Kyoto [1] (cell cycle stage: mitosis) were -0.229 and -1.17, respectively. Besides, the “solubility in G1/S (log2)” value in the data set with HeLa Kyoto [2] worked out at 0.16. Moreover, the “solubility change mitosis (log2)” value in the data set on HeLa Kyoto [3] was determined as 0.0519. For the same sequence, the melting temperature in the data set with HeLa Kyoto [4] (cell cycle stage: G1/S) was determined as 52 °C; in the data set on HeLa Kyoto [4] (cell cycle stage: mitosis) it was 52.9 °C.

In the case of “MCGIFAYMNYRVPRTRKEIFETLIKGLQRLEYRGYDSAGVAIDGNNHEVKERHIQLVKKRGKVKALDEELYKQDSMDLKVEFETHFGIAHTRWATHGVPSAVNSHPQRSDKGNEFVVIHNGIITNYKDLRKFLESKGYEFESETDTETIAKLIKYVFDNRETEDITFSTLVERVIQQLEGAFALVFKSVHYPGEAVATRRGSPLLIGVRSKYKLSTEQIPILYRTCTLENVKNICKTRMKRLDSSACLHAVGDKAVEFFFASDASAIIEHTNRVIFLEDDDIAAVADGKLSIHRVKRSASDDPSRAIQTLQMELQQIMKGNFSAFMQKEIFEQPESVFNTMRGRVNFETNTVLLGGLKDHLKEIRRCRRLIVIGCGTSYHAAVATRQVLEELTELPVMVELASDFLDRNTPVFRDDVCFFISQSGETADTLLALRYCKDRGALTVGVTNTVGSSISRETDCGVHINAGPEIGVASTKAYTSQFISLVMFGLMMSEDRISLQNRRQEIIRGLRSLPELIKEVLSLEEKIHDLALELYTQRSLLVMGRGYNYATCLEGALKIKEITYMHSEGILAGELKHGPLALIDKQMPVIMVIMKDPCFAKCQNALQQVTARQGRPIILCSKDDTESSKFAYKTIELPHTVDCLQGILSVIPLQLLSFHLAVLRGYDVDFPRNLAKSVTVE [GFPT2]”, the thermal stability score was -1.27 in the data set on HeLa Kyoto [1] (setting [5]) and 0.586 with HeLa Kyoto [1] (cell cycle stage: mitosis). Besides, the “solubility in G1/S (log2)” value in the data set on HeLa Kyoto [2] was -0.201. The “solubility change mitosis (log2)” value with HeLa Kyoto [3] is -0.124. Besides, the melting temperature with HeLa Kyoto [4] (cell cycle stage: G1/S) was 54.3 °C; in the data set on HeLa Kyoto [4] (cell cycle stage: mitosis), 53.9 °C.
